Reference: patent US20250255972A1, “METHOD OF TREATING UVEITIS WITH MULTIVALENT PROTEIN-HYALURONIC ACID POLYMER CONJUGATE” (Valitor, Inc., priority 2022, published 2025)
“Also recorded” adds a separate entry of the source. One block for each molecule: values may come before it.

Columns and labels:
[1] = tested on: pro-inflammatory cytokines and inflammatory regulators in rat vitreous; experiment: Cytokine analysis of rat vitreous 14 days after uveitis induction (Milliplex bead panel); format: in vivo, Male Lewis rats; settings: rat eyes 14 days after uveitis induction; ITV triamcinolone 40 μg or conjugate #10 19 μg
Protocol: (§1) The efficacy of conjugate #10 was validated to provide a treatment effect that can sufficiently reduce the symptoms of uveitis. Male Lewis rats were divided into 4 groups (n=12 for EAU induced groups and n=8 for uninduced control) and randomized by weight. The groups received either conjugate #10 at 19 μg, triamcinolone (40 μg), or vehicle control. On Day 1, rats in the induced groups were immunized by a subcutaneous injection in each flank with 25 μg of interphotoreceptor retinoid-binding protein (IRBP) peptide R16 in 0.1 mL of complete Freund's adjuvant for 50 μg total. On days 4 and 8, rat eyes were treated bilaterally with a 5 μL intravitreal (ITV) injection of conjugate #10 or vehicle control, or 1 μL ITV injection of triamcinolone based on their assigned treatment. Prior to the start of the study and on days 3, 6, 10, 12 and 14, ocular inflammation was accessed by slit lamp microscopy and assigned a clinical EAU score of 0-4 based on the appearance of inflammation.
On day 14, animals were euthanized and one eye from each animal was dissected into vitreous and aqueous humor to perform for cytokine analysis. After dissection the aqueous humor from each group was pooled and all tissues were flash frozen. A milliplex Rat Cytokine/Chemokine magnetic bead panel (Millipore Cat #RECYMAG65K27PMX) was used to assess the relative cytokine concentrations in the tissues according to the manufacturer's protocol. Briefly, the ocular tissues were thawed on ice and the sample volume was measured. Then, assay buffer was added to the samples to achieve a final volume of 55 μL for duplicate readings and mixed well. Next, 25 μL of samples, standards or controls was added to the assay plate, mixed with 25 μL of beads and incubated at room temperature for 2 hours. The wells were washed on a magnetic plate washer and incubated with 25 μL of detection antibodies for one hour and then 25 μL of Streptavadin-Phycoerythrin for 30 minutes. Wells were washed on a magnetic plate washer and 125 μL of Sheath Fluid Plus was added per well and then read on the Luminex. The amount of cytokine recovered from each sample was normalized to the volume of tissue recovered and plotted.

[2] = tested on: experimental autoimmune uveoretinitis (EAU) in rats; experiment: Second rat EAU model, clinical score by slit lamp, Example 9; format: in vivo, Male Lewis rats; settings: FIG. 7A, ITV, triamcinolone (40 μg) or conjugate #10 (19 μg), one day after ITV treatment, vs vehicle
Protocol: as §1

[3] = biological target: T1, Human TNFα, Avi and His tagged (Acro Biosystems TNA-H82E3) (human, UniProt P01375 77-233); experiment: BLI (Gator), Avi-tagged TNFα on streptavidin probes, conjugate as analyte, 1:1 global fit
T1 construct: Bought BLI ligand, loaded on streptavidin probes through the Avi tag; also called BLI ligand
T1 sequence (P01375 77-233 limits assumed): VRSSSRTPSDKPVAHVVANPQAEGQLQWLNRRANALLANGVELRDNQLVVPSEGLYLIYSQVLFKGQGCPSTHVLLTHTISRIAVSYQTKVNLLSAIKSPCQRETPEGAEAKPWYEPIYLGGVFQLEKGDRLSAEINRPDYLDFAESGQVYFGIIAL

[4] = Hydrodynamic radius by dynamic light scattering (DLS); format: physicochemical; settings: 25° C.
Human TNFα = biological target: T2, Human TNFα (Homo sapiens, UniProt P01375); experiment: Biolayer interferometry (BLI) binding kinetics, Human TNFα ligand; settings: purified conjugate
T2 construct: Avi; His; purchased Acro Biosystems TNA-H82E3
T2 sequence (P01375 77-233 limits assumed): as above

[5] = Long-term 37° C. stability in vitreous mimetic buffer, radius by DLS; format: physicochemical; settings: FIG. 4C; after 35 days at 37° C. in vitreous mimetic buffer
Protocol: (§2) We then used the top performers from the thermal stability experiments in a long-term 37° C. stability studies. The MVPs were synthesized under sterile conditions and diluted to around 0.4 mg/mL in a sterile filtered human vitreous mimetic buffer (see Table 10) or remained in formulation buffer. The samples were either filtered using sterile 0.2 or 5 μm spin filters before use or mixed with 0.010% sodium azide as an anti-microbial agent. Then, several 100-150 μL aliquots of each sample were added to wells of a sterile 96 well plate with one day 0 aliquot reserved at 4° C. The remaining wells were filled with a sterile filtered human vitreous buffer+0.01% sodium azide to minimize evaporation. The plate was incubated in a standard tissue culture incubator at 37° C. with 5% CO2. At discrete timepoints, one aliquot from each sample was removed from the plate under sterile conditions and analyzed. […] Then, the protein concentration was measured to adjust for any differences in volume that may have occurred. […] To monitor changes in radius over time, the samples were spun for 5 minutes at 5000 g to remove any large aggregates or dust particles and the Rh was measured using DLS methods described above except that the instrument is at 37° C. and without any sample dilution.

[6] = tested on: experimental autoimmune uveoretinitis (EAU) in rats; experiment: Rat experimental autoimmune uveoretinitis (EAU) model, Example 8; format: in vivo, Male Lewis rats; settings: vs vehicle
Protocol: The efficacy of mu_anti-TNFα_aH_CYS MVPs were validated to provide a treatment effect that can sufficiently reduce the symptoms of uveitis. A rat model of experimental autoimmune uveoretinitis (EAU) was used as a model of chronic posterior uveitis in humans. This model was induced by systemic immunization with the uveitogenic interphotoreceptor retinoid-binding protein (IRBP), and symptoms of uveitis appeared after 9-11 days. Rats were treated intravitreally with 12.5 μg of mu_anti-TNFα_aH_CYS MVP (Conjugate #7). As a positive control, dexamethasone was used.
Male Lewis rats were divided into 4 groups (n=8) and randomized by weight. […] On Day 1, rats were immunized by a subcutaneous injection at the base of the tail and in each thigh with 30 μg of bovine IRBP peptide R16 in 0.2 mL of Freund's adjuvant. On days 8 and 10, rat eyes were treated bilaterally with a 5 μL ITV injection of either dose of their assigned treatment. Prior to the start of the study and on days 7, 9, 11, 14, we assessed ocular inflammation by slit lamp microscopy and assigned a clinical EAU score of 0-4 based on the appearance of inflammation. On day 14, animals were euthanized, one eye from each animal was processed for histopathology, and assigned a score of 0-4 based on the appearance of inflammation and cell infiltration. EAU and histopathology were scored based on published standardized scoring systems.

TNFα = experiment: Long-term 37° C. stability, change in Kon by BLI; format: physicochemical; settings: FIG. 4B
Protocol: as §2

Molecule: C[C@]12C=CC(=O)C=C1CC[C@H]1[C@@H]3C[C@@H](O)[C@](O)(C(=O)CO)[C@@]3(C)C[C@H](O)[C@@]12F [Triamcinolone, triamcinolone, reference compound]
IFNγ concentration in the vitreous ± SD [1]: 2.540 ± 1.804 ng/mL
IL-1α concentration in the vitreous ± SD [1]: 1.321 ± 0.844 ng/mL
IL-1β concentration in the vitreous ± SD [1]: 0.721 ± 0.445 ng/mL
IL-6 concentration in the vitreous ± SD [1]: 19.936 ± 17.156 ng/mL
MCP-1 concentration in the vitreous ± SD [1]: 2.705 ± 2.640 ng/mL
TNFα concentration in the vitreous ± SD [1]: 0.046 ± 0.051 ng/mL
Average inflammation score (clinical EAU score, 0=none to 4=severe) [2]: decreased inflammation compared to the vehicle control

B1: (SEQ ID NO:149)+HyA conjugate #12, valency 99 (other)
VHH: QVQLVESGGGLVQPGGSLRLSCAASGGTFSSIIMAWFRQAPGKEREFVGAVSWSGGTTVYADSVKGRFTISRDNSKNTVYLQMNSLRPEDTAVYYCAARPYQKYNWASASYNVWGQGTLVTVSSAEAAAKEAAAKEAAAKAGC
modifications: C-terminal cysteine thiol of the aH peptide linker joined through the MP2H organic linker to hyaluronic acid
Kd [3]: ≤ 1 pM

B2: Conjugate #12: (SEQ ID NO:149, Hu aTNFα 3MUT aH_CYS)+hyaluronic acid conjugate, MP2H linker, valency 99 (conjugate)
VHH: QVQLVESGGGLVQPGGSLRLSCAASGGTFSSIIMAWFRQAPGKEREFVGAVSWSGGTTVYADSVKGRFTISRDNSKNTVYLQMNSLRPEDTAVYYCAARPYQKYNWASASYNVWGQGTLVTVSSAEAAAKEAAAKEAAAKAGC
modifications: hyaluronic acid conjugate, MP2H linker; Hu_aTNFaMu_3MUT aH_CYS
Rh (nm, DLS) [4]: 70.12 nm

B6: Conjugate #13: (SEQ ID NO:150, Hu aTNFα 5MUT aH_CYS)+hyaluronic acid conjugate, MP2H linker, valency 102 (conjugate)
VHH: QVQLVESGGGLVQPGGSLRLSCAASGGTFSSIIMAWFRQAPGKEREFVAAISWSGGTTVYADSVKGRFTISRDNSKNTVYLQMNSLRPEDTAVYYCAARPYQKYNWASASYNVWGQGTLVTVSSAEAAAKEAAAKEAAAKAGC
modifications: hyaluronic acid conjugate, MP2H linker; Hu_aTNFaMu_5MUT aH_CYS
Rh (nm, DLS) [4]: 71.64 nm

B7: (SEQ ID NO:150)+HyA conjugate #13, valency 102 (other)
VHH: QVQLVESGGGLVQPGGSLRLSCAASGGTFSSIIMAWFRQAPGKEREFVAAISWSGGTTVYADSVKGRFTISRDNSKNTVYLQMNSLRPEDTAVYYCAARPYQKYNWASASYNVWGQGTLVTVSSAEAAAKEAAAKEAAAKAGC
modifications: C-terminal cysteine thiol of the aH peptide linker joined through the MP2H organic linker to hyaluronic acid
notes: also called Conjugate ID 13
Kd [3]: ≤ 1 pM

More lines, main results first:

Kd (Human TNFα): ≤ 0.001 nM
B3: Conjugate #10: (SEQ ID NO:104, anti-TNFα 3MUT VHH (mouse)-aH)+HyA (850 kDa) conjugate, MP2H linker, valency 96.5 (conjugate)
VHH: QVQLQESGGGLVQAGGSLRLSCAASGGTFSSIIMAWFRQAPGKEREFVGAVSWSGGTTVYADSVKGRFTISRDSARKSVYLQMNSLKPEDTAVYYCAARPYQKYNWASASYNVWGQGTQVTVSSAEAAAKEAAAKEAAAKAGC
modifications: hyaluronic acid 850 kDa conjugate, MP2H linker; anti-TNFalpha 3MUT VHH (mouse)- aH
IFNγ concentration in the vitreous ± SD [1]: 3.116 ± 1.436 ng/mL
IL-1α concentration in the vitreous ± SD [1]: 1.511 ± 0.709 ng/mL
IL-1β concentration in the vitreous ± SD [1]: 0.667 ± 0.271 ng/mL
IL-6 concentration in the vitreous ± SD [1]: 25.565 ± 15.702 ng/mL
MCP-1 concentration in the vitreous ± SD [1]: 3.843 ± 2.499 ng/mL
TNFα concentration in the vitreous ± SD [1]: 0.058 ± 0.038 ng/mL
Rh (nm, DLS) [4]: 99.14 nm
Average inflammation score (clinical EAU score, 0=none to 4=severe) [2]: comparable to triamcinolone; also recorded: decreased inflammation compared to the vehicle control

Kd (Human TNFα): ≤ 0.001 nM
B4: Conjugate #7: (SEQ ID NO:104, anti-TNFα 3MUT VHH (mouse)-aH)+HyA (850 kDa) conjugate, MP2H linker, valency 98 (conjugate)
VHH: QVQLQESGGGLVQAGGSLRLSCAASGGTFSSIIMAWFRQAPGKEREFVGAVSWSGGTTVYADSVKGRFTISRDSARKSVYLQMNSLKPEDTAVYYCAARPYQKYNWASASYNVWGQGTQVTVSSAEAAAKEAAAKEAAAKAGC
modifications: hyaluronic acid 850 kDa conjugate via MP2H linker; anti-TNFalpha 3MUT VHH (mouse)- aH
conjugate size (DLS) as share of the original radius [5]: about 75%
Average inflammation score (0=none to 4=severe) ([6]; FIG. 6A, rat EAU, ITV, or Conjugate #7 (12.5 μg), n=8, one day after ITV treatment): decreased inflammation compared to the vehicle control
Average histology inflammation score (0=none to 4=severe) ([6]; FIG. 6B, rats sacrificed 14 days after model induction, p<0.05): less inflamed than vehicle treated eyes
Rh (nm, DLS) [4]: 76.42 nm

Kd (Human TNFα): ≤ 0.001 nM
change in association constant of TNFα binding (TNFα; after 35 days at 37° C.): minimal change
B5: Conjugate #6: (SEQ ID NO:104, anti-TNFα 3MUT VHH (mouse)-aH)+HyA (850 kDa) conjugate, MP2H linker, valency 51 (conjugate)
VHH: QVQLQESGGGLVQAGGSLRLSCAASGGTFSSIIMAWFRQAPGKEREFVGAVSWSGGTTVYADSVKGRFTISRDSARKSVYLQMNSLKPEDTAVYYCAARPYQKYNWASASYNVWGQGTQVTVSSAEAAAKEAAAKEAAAKAGC
modifications: hyaluronic acid 850 kDa conjugate via MP2H linker; anti-TNFalpha 3MUT VHH (mouse)- aH
conjugate size (DLS) as share of the original radius [5]: about 75%
Rh (nm, DLS) [4]: 76.8 nm

Kd (Human TNFα): ≤ 0.001 nM
change in association constant of TNFα binding (TNFα; after 5 days at 37° C.): dramatically decreased
B8: Conjugate #5: (SEQ ID NO:103, anti-TNFα VHH (mouse)-aH)+HyA (850 kDa) conjugate, MP2H linker, valency 121 (conjugate)
VHH: QVQLQDSGGGLVQAGGSLRLSCAASGGTFSSIIMAWFRQAPGKEREFVGAVSWSGGTTVYADSVLGRFEISRDSARKSVYLQMNSLKFPEDTAVYYCAARPYQKYNWASASYNVWGQGTQVTVSSAEAAAKEAAAKEAAAKAGC
modifications: hyaluronic acid 850 kDa conjugate via MP2H linker; anti-TNFalpha VHH (mouse)- aH
